Test results from US20210355194A1 (published 2021).
Where two headings read alike, the source gives them in different places.

Experiments:
[1] = target: T1, SARS-CoV-2 membrane protein (SARS-CoV-2, UniProt P0DTC5 1-222); test: SPR
[2] = target: T2, SARS-CoV-2 S protein trimer (SARS-CoV-2, UniProt P0DTC2 14-1208); test: SPR
[3] = target: T3, SARS-CoV-2 S1 protein (SARS-CoV-2, UniProt P0DTC2 16-685); test: SPR
[4] = target: SARS-CoV-2 S1 RBD (SARS-CoV-2, UniProt P0DTC2 319-537); test: competition
[5] = target: T2, SARS-CoV-2 S protein trimer; test: SPR; remark: listed apart in the source
[6] = target: T3, SARS-CoV-2 S1 protein; test: SPR; remark: listed apart in the source
[7] = target: T1, SARS-CoV-2 membrane protein; test: SPR; remark: listed apart in the source
[8] = target: T1, SARS-CoV-2 membrane protein; test: SPR; remark: listed apart in the source
[9] = target: ACE2 (human, UniProt Q9BYF1 18-740); test: SPR
[10] = target: human ACE2 (human, UniProt Q9BYF1 18-740); test: SPR
Chain of human ACE2 (Q9BYF1 18-740): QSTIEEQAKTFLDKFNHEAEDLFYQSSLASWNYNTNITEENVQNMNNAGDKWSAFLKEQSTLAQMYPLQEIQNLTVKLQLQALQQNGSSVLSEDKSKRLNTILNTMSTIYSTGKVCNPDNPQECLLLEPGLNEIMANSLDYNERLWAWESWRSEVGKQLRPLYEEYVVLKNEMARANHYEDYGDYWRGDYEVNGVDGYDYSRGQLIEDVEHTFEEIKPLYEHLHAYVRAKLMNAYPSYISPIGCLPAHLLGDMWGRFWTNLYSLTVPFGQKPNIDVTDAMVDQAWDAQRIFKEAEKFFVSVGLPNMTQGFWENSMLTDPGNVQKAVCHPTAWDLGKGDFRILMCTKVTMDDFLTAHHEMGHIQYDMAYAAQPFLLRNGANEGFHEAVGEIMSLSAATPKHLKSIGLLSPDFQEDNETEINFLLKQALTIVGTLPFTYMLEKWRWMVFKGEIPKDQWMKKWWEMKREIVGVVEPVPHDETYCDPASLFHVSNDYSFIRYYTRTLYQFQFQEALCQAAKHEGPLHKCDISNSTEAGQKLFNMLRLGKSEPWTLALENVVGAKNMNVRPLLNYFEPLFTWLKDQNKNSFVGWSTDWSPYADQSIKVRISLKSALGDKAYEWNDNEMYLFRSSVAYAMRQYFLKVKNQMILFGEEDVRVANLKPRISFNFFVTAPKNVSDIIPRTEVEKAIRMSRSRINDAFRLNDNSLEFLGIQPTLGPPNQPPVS

Chain of ACE2 (Q9BYF1 18-740): as above

| Binder | Kd [1] | Kd [2] | Kd [3] | IC50 [4] | further results |
| --- | --- | --- | --- | --- | --- |
| 9-11 (antibody, V domains shown) VH: EVQLVESGGGLVQPGGSLRLSCAASGRTFGRRAMGWFRQAPGKEREFVAGISRGGGTNYADSVKGRFTISADNSKNTAYLQMNSLKPEDTAVYYCAAKGIWDYLGRRDFGDWGQGTLVTVSS | 0.593 nM | – | – | – | – |
| 2-2 (antibody, V domains shown) VH: EVQLLESGGGLVQPGGSLRLSCAASGFTFSRHAMNWVRQAPGKGLEWVSGISGSGDETYYADSVKGRFTISRDNSKNTLYLQMNSLRAEDTAVYYCARDLPASYYDSSGYYWHNGMDVWGQGTLVTVSS VL: DIQMTQSPSSLSASVGDRVTITCRASQTINTYLNWYQQKPGKAPKLLIYSASTLQSGVPSRFSGSGSGTDFTLTISSLQPEDFATYYCQQSYSTFTFGQGTKVEIK | – | 0.143 nM | 74 nM | 1.26 nM | – |
| 2-6 (antibody, V domains shown) VH: EVQLLESGGGLVQPGGSLRLSCAASGFTFSNYPMNWVRQAPGKGLEWVSTISGSGGNTFYADSVKGRFTISRDNSKNTLYLQMNSLRAEDTAVYYCVRHDEYSFDYWGQGTLVTVSS VL: DIQMTQSPSSLSASVGDRVTITCRASQSIDTYLNWYQQKPGKAPKLLIYAASALASGVPSRFSGSGSGTDFTLTISSLQPEDFATYYCQQSYSAPPYTFGQGTKVEIK | – | 0.036 nM | 7.2 nM | 0.754 nM | Kd [5]: < 0.036 nM; Kd [6]: 7.2 nM |
| 2-5 (antibody, V domains shown) VH: EVQLLESGGGLVQPGGSLRLSCAASGFTFSDFAMAWVRQAPGKGLEWVSAISGSGDITYYADSVKGRFTISRDNSKNTLYLQMNSLRAEDTAVYYCAREADGLHSPWHFDLWGQGTLVTVSS VL: DIQMTQSPSSLSASVGDRVTITCRASQSIHTYLNWYQQKPGKAPKLLIYAASALASGVPSRFSGSGSGTDFTLTISSLQPEDFATYYCQQSYSAPPYTFGQGTKVEIK | – | 1.7 nM | 0.223 nM | 3.83 nM | – |
| 10-28 (antibody, V domains shown) VH: EVQLVESGGGLVQPGGSLRLSCAASGSIFSIGMGWFRQAPGKEREFVARIWWRSGATYYADSVKGRFTISADNSKNTAYLQMNSLKPEDTAVYYCAAISIFGRLKWGQGTLVTVSS | 5.6 nM | – | – | – | Kd [7]: 5.6 nM |
| 10-20 (antibody, V domains shown) VH: EVQLVESGGGLVQPGGSLRLSCAASGRTIRTMGWFRQAPGKEREFVATINSRGITNYADSVKGRFTISADNSKNTAYLQMNSLKPEDTAVYYCTTERDGLLWFRELFRPSWGQGTLVTVSS | – | – | – | – | Kd [8]: 66 nM |
| ACE2 variant antibody 4-49 (VHH) VHH: EVQLVESGGGLVQPGGSLRLSCAASGRTFGDYIMGWFRQAPGKERESVAAINWSAGYTAYADSVKGRFTISADNSKNTAYLQMNSLKPEDTAVYYCARASPNTGWHFDHWGQGTLVTVSS | – | – | – | – | Kd [9]: 2.3 nM |
| 10-27 (antibody, V domains shown) VH: EVQLVESGGGLVQPGGSLRLSCAASGRTFRRYSMGWFRQAPGKEREFVASITPGGNTNYADSVKGRFTISADNSKNTAYLQMNSLKPEDTAVYYCASRRRWLTPYIFWGQGTLVTVSS | 5.7 nM | – | – | – | – |
| 3-7 (antibody, V domains shown) VH: EVQLLESGGGLVQPGGSLRLSCAASGFMFGNYAMSWVRQAPGKGLEWVAAISGSGGSTYYADSVKGRFTISRDNSKNTLYLQMNSLRAEDTAVYYCAKDRGYSSSWYGGFDYWGQGTLVTVSS VL: DIQMTQSPSSLSASVGDRVTITCRASQSIGRYLNWYQQKPGKAPKLLIYASSSLQSGVPSRFSGSGSGTDFTLTISSLQPEDFATYYCQQSYSLPRTFGQGTKVEIK | – | – | – | – | Kd [10]: 0.326 nM |
| 2-9 (antibody, V domains shown) VH: EVQLLESGGGLVQPGGSLRLSCAASGFTFPRYAMSWVRQAPGKGLEWVSTISGSGSTTYYADSVKGRFTISRDNSKNTLYLQMNSLRAEDTAVYYCARLIDAFDIWGQGTLVTVSS VL: DIQMTQSPSSLSASVGDRVTITCRASQRIGTYLNWYQQKPGKAPKLLIYAASNLEGGVPSRFSGSGSGTDFTLTISSLQPEDFATYYCQQNYSTTWTFGQGTKVEIK | – | – | – | 4.69 nM | – |
